{
  "source": "paper doi:10.1101/2024.12.17.628889",
  "target": "wild-type PERK BiFC construct (pEZY BiFC pre-NV(CV)-PERK) (human) (UniProt Q9NZJ5)",
  "sequence (Q9NZJ5 30-1116)": "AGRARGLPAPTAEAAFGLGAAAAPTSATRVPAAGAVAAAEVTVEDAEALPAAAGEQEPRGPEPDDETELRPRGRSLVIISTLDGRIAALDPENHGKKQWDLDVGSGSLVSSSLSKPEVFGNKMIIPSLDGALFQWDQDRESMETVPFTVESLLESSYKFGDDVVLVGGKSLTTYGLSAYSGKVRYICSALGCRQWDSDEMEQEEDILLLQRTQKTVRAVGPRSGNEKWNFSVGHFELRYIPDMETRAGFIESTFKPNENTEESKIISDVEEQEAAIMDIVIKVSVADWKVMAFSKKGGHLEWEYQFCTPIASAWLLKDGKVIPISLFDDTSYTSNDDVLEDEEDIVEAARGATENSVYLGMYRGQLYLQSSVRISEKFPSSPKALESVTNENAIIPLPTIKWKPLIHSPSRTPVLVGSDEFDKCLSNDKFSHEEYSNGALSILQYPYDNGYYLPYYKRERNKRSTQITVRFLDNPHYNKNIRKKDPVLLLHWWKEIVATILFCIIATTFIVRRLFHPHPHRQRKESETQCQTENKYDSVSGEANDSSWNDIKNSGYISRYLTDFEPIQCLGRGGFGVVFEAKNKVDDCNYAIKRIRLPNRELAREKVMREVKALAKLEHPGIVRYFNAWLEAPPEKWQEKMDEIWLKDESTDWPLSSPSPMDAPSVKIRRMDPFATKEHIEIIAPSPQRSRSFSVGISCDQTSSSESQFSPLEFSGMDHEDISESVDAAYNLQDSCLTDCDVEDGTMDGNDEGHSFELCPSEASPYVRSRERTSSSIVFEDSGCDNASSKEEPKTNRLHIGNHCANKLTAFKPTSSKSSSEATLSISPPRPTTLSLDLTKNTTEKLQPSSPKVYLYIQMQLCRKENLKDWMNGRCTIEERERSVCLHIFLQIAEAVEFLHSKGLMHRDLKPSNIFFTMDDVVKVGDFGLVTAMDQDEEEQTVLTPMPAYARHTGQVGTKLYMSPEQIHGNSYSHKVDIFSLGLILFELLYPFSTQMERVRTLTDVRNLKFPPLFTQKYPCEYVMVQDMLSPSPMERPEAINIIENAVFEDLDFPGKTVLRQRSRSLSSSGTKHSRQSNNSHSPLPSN",
  "test": "split reporter",
  "data": [
    {"substance": "CDNF BiFC construct (pEZY BiFC pre-CDNF-NV(CV)) (from UniProt Q49AH0 25-187) (natural protein)", "values": [
      {"measurement": "BiFC fluorescence intensity relative to the CDNF-IRE1α interaction", "value": 7, "unit": "times higher"}
    ]},
    {"substance": "CDNF K122A BiFC construct (natural protein)", "values": [
      {"measurement": "BiFC fluorescent signal relative to wt CDNF and the other mutants", "value": 5, "unit": "times lower"}
    ]}
  ]
}
